Test results from patent US20190194299A1.

Key:
[1] = target: Human DPP4 on stable 293T cells (293T-hDPP4) (human) (UniProt P27487)
[2] = target: S1(349-590)-hFc (MERS-CoV; human) (UniProt K9N5Q8); assay: BLI (Octet), wild type RBD-hFc

Substance | EC50 [1] | Kd [2]
S1(349-590)-hFc (from UniProt K9N5Q8 349-590) (Fc fusion) | 0.015 µg/mL | 
Recombinant soluble human DPP4 (from UniProt P27487 29-766) (receptor) |  | 0.0214 µM
